Assay results as given in patent US20140011978A1 (EPFL TTO, published 2014).

T1: TNC III1-5 (human, UniProt P24821 622-1074)
T1 construct: The secreted protein in the assays lacks the leader; also called TG-TNC III1-5; engineered TNC III1-5
T1 sequence: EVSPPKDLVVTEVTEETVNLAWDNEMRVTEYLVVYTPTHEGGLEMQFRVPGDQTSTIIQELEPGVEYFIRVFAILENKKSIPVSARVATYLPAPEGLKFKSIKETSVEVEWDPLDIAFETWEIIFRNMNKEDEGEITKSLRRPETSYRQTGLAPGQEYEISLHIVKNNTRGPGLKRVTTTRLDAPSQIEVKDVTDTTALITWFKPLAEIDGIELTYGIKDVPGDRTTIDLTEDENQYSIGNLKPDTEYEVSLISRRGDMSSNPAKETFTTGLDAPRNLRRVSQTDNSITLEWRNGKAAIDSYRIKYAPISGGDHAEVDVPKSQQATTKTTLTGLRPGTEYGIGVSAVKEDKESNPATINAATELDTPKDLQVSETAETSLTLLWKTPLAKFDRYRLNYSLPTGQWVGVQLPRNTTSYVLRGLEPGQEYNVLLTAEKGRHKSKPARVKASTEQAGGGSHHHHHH

T2: PlGF-1 (UniProt P49763-2 19-149)
T2 sequence (looked up): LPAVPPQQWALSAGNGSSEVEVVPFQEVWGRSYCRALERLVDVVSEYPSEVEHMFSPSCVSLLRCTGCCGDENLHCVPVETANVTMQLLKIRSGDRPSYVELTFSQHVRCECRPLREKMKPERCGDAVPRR

B1: FGF-6 (ligand, UniProt P10767 38-208, looked up)
chain: SPAGTRANNTLLDSRGWGTLLSRSRAGLAGEIAGVNWESGYLVGIKRQRRLYCNVGIGFHLQVLPDGRISGTHEENPYSLLEISTVERGVVSLFGVRSALFVAMNSKGRLYATPSFQEECKFRETLLPNNYNAYESDLYQGTYIALSKYGRVKRGSKVSPIMTVTHFLPRI
B2: TGF-β3 (ligand)
chain: ALDTNYCFRNLEENCCVRPLYIDFRQDLGWKWVHEPKGYYANFCSGPCPYLRSADTTHSTVLGLYNTLNPEASASPCCVPQDLEPLTILYYVGRTPKVEQLSNMVVKSCKCS
modifications: Natural form is a disulfide-linked homodimer; one protomer is given.
B3: EGF (ligand)
chain: NSDSECPLSHDGYCLHDGVCMYIEALDKYACNCVVGYIGERCQYRDLKWWELR

Assays:
[1] = target: T1, TNC III1-5; assay: ELISA: cytokine coated (50 nM), 100 nM TNC III1-5 in solution, HRP-anti-His, A450; black bars without, white bars with 4 µM heparin
Description: (§1) ELISA plates were coated with cytokines or BSA and further incubated with TNC III1-5 to analyze binding of TNC III1-5 to a wide variety of cytokines. […] A large amount of heparin (4 μM) impaired binding of TNC III1-5 to these cytokines. Results are depicted in FIG. 3. Method: 50 nM of cytokine was coated for (1 hr, 37° C.). After blocking with 2% BSA (1 hr, RT). 100 nM TNC III1-5 was applied in PBST (0.05% tween, 0.1% bovine serum albumin (BSA)) (1 hr, RT). TNC III1-5 was detected with horseradish peroxidase (HRP)-anti-HIS in PBST (1 hr, RT) and developed with 3,3′,5,5′-tetramethylbenzidine (TMB), a soluble colorimetric HRP […]. Addition of sulfuric acid stop solution changes the color to yellow, enabling accurate measurement of the intensity at 450 nm using a spectrophotometer or plate reader. […] Heparin (4 μM) was added to TNC III1-5 to test the effect of blocking the heparin binding site of TNC III1-5, which has been defined as domain TNC III5 (Weber, Zimmermann, et al., 1995).

[2] = target: T3, PDGF-BB (UniProt P01127 82-190); assay: ELISA: GST-fused TNC domains, GST and BSA coated, 2 nM PDGF-BB in solution, anti-PDGF-BB antibody and HRP secondary, A450
T3 construct: The name implies a homodimer of B chains
T3 sequence (P01127 82-190 limits assumed): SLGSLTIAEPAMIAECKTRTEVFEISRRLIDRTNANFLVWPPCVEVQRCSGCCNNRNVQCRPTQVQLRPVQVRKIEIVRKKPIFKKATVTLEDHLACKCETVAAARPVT
Description: An ELISA was performed to test the affinity of different domains present in TNC1-5 to PDGF-BB as an example cytokine that has shown to bind TNC III1-5. Domain TNC III5 was defined to be responsible for cytokine binding. Method: ELISA plates were coated with individual TNC domains fused to GST, as well as GST and BSA. Wells were blocked with BSA and then incubated with 2 nM PDGF-BB. Binding of PDGF-BB was detected using an anti-PDGF-BB antibody and then a secondary horseradish peroxidase conjugated antibody.

[3] = target: T1, TNC III1-5; assay: ELISA: cytokine coated (50 nM), 100 nM TNC III1-5 in solution, HRP-anti-His, A450
Description: as §1

[4] = target: B2; assay: ELISA: growth factor coated, Fg fragment in solution, A450 (methods analogous to Example 3)
Description: as §1
(§2) ELISA plates were coated with cytokines or BSA and further incubated with Fg β15-66 to analyze binding of […] to a wide variety of cytokines. […] Results are depicted in FIG. 4. Method: The methods were analogous to those used in Example 3.

[5] = target: B3; assay: as above
Description: as §1, §2

[6] = target: T2, PlGF-1; assay: as above
Description: as §1, §2

[7] = target: B1; assay: as above
Description: as §1, §2

[8] = target: T4, BSA (bovine, UniProt P02769); assay: ELISA: BSA coated as control, Fg fragment in solution, A450 (methods analogous to Example 3)
T4 construct: negative control; also called bovine serum albumin
T4 sequence (P02769 25-607 limits assumed): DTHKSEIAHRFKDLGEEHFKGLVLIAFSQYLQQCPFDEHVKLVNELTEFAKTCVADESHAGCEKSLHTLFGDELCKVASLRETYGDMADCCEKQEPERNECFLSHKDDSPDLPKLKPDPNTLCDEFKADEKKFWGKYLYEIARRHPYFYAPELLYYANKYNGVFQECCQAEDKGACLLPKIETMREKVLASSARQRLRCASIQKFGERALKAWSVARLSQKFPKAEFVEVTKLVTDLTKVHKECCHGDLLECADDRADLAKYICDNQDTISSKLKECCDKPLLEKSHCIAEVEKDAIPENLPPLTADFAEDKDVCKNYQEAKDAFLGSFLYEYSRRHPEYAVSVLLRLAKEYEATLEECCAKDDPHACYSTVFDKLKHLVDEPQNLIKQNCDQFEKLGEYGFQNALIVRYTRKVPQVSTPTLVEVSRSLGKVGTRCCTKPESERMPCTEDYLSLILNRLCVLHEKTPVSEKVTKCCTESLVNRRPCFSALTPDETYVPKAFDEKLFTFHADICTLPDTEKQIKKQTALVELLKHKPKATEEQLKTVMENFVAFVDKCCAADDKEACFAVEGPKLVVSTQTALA
Description: as §1, §2

Binder	binding result [1]	other results
FGF-4 (ligand, UniProt P08620 31-206, looked up) APTAPNGTLEAELERRWESLVALSLARLPVAAQPKEAAVQSGAGDYLLGIKRLRRLYCNVGIGFHLQALPDGRIGGAHADTRDSLLELSPVERGVVSIFGVASRFFVAMSSKGKLYGSPFFTDECTFKEILLPNNYNAYESYKYPGMFIALSKNGKTKKGNRVSPTMKVTHFLPRL	binds	–
B1	binds	–
FGF-7 (ligand, UniProt P21781 32-194, looked up) CNDMTPEQMATNVNCSSPERHTRSYDYMEGGDIRVRRLFCRTQWYLRIDKRGKVKGTQEMKNNYNIMEIRTVAVGIVAIKGVESEFYLAMNKEGKLYAKKECNEDCNFKELILENHYNTYASAKWTHNGGEMFVALNQKGIPVRGKKTKKEQKTAHFLPMAIT	binds	–
FGF-10 (ligand, UniProt O15520 38-208, looked up) QALGQDMVSPEATNSSSSSFSSPSSAGRHVRSYNHLQGDVRWRKLFSFTKYFLKIEKNGKVSGTKKENCPYSILEITSVEIGVVAVKAINSNYYLAMNKKGKLYGSKEFNNDCKLKERIEENGYNTYASFNWQHNGRQMYVALNGKGAPRRGQKTRRKNTSAHFLPMVVHS	binds	–
FGF-17 (ligand, UniProt O60258 23-216, looked up) TQGENHPSPNFNQYVRDQGAMTDQLSRRQIREYQLYSRTSGKHVQVTGRRISATAEDGNKFAKLIVETDTFGSRVRIKGAESEKYICMNKRGKLIGKPSGKSKDCVFTEIVLENNYTAFQNARHEGWFMAFTRQGRPRQASRSRQNQREAHFIKRLYQGQLPFPNHAEKQKQFEFVGSAPTRRTKRTRRPQPLT	binds	–
FGF-18 (ligand, UniProt O76093 28-207, looked up) EENVDFRIHVENQTRARDDVSRKQLRLYQLYSRTSGKHIQVLGRRISARGEDGDKYAQLLVETDTFGSQVRIKGKETEFYLCMNRKGKLVGKPDGTSKECVFIEKVLENNYTALMSAKYSGWYVGFTKKGRPRKGPKTRENQQDVHFMKRYPKGQPELQKPFKYTTVTKRSRRIRPTHPA	binds	–
TGF-β2 (ligand, UniProt P61812 303-414, looked up) ALDAAYCFRNVQDNCCLRPLYIDFKRDLGWKWIHEPKGYNANFCAGACPYLWSSDTQHSRVLSLYNTINPEASASPCCVSQDLEPLTILYYIGKTPKIEQLSNMIVKSCKCS	binds	–
BMP-2 (ligand, UniProt P12643 283-396, looked up) QAKHKQRKRLKSSCKRHPLYVDFSDVGWNDWIVAPPGYHAFYCHGECPFPLADHLNSTNHAIVQTLVNSVNSKIPKACCVPTELSAISMLYLDENEKVVLKNYQDMVVEGCGCR	binds	–
BDNF (ligand, UniProt P23560 129-247, looked up, also called brain-derived neurotrophic factor) HSDPARRGELSVCDSISEWVTAADKKTAVDMSGGTVTVLEKVPVSKGQLKQYFYETKCNPMGYTKEGCRGIDKRHWNSQCRTTQSYVRALTMDSKKRIGWRFIRIDTSCVCTLTIKRGR	binds	–
VEGF-A165 (ligand, UniProt P15692-4 27-191, looked up) APMAEGGGQNHHEVVKFMDVYQRSYCHPIETLVDIFQEYPDEIEYIFKPSCVPLMRCGGCCNDEGLECVPTEESNITMQIMRIKPHQGQHIGEMSFLQHNKCECRPKKDRARQENPCGPCSERRKHLFVQDPQTCKCSCKNTDSRCKARQLELNERTCRCDKPRR	binds	–
VEGF-C (ligand, UniProt P49767 112-227, looked up) AHYNTEILKSIDNEWRKTQCMPREVCIDVGKEFGVATNTFFKPPCVSVYRCGGCCNSEGLQCMNTSTSYLSKTLFEITVPLSQGPKPVTISFANHTSCRCMSKLDVYRQVHSIIRR	binds	–
PlGF-2 (ligand, UniProt P49763-3 19-170, looked up) LPAVPPQQWALSAGNGSSEVEVVPFQEVWGRSYCRALERLVDVVSEYPSEVEHMFSPSCVSLLRCTGCCGDENLHCVPVETANVTMQLLKIRSGDRPSYVELTFSQHVRCECRPLREKMKPERRRPKGRGKRRREKQRPTDCHLCGDAVPRR	binds	–
TNC III4 (other, human, UniProt P24821 895-990, looked up, domain fragment; also called TNC III4 fused to GST) GST fusion: APRNLRRVSQTDNSITLEWRNGKAAIDSYRIKYAPISGGDHAEVDVPKSQQATTKTTLTGLRPGTEYGIGVSAVKEDKESNPATINAATELDTPKD	–	binding result [2]: binds
TNC III5 fused to GST (other, human, UniProt P24821 991-1074, looked up, domain: TNC III5; also called domain TNC III5; not shown: GST) LQVSETAETSLTLLWKTPLAKFDRYRLNYSLPTGQWVGVQLPRNTTSYVLRGLEPGQEYNVLLTAEKGRHKSKPARVKASTEQA	–	binding result [2]: binds
FGF-20 (ligand) not shown	–	binding result [3]: no binding (tested: 100 nM)
B2	–	binding result [3]: no binding (tested: 100 nM)
B3	–	binding result [3]: no binding (tested: 100 nM)
Fg β1-66 (other, production not given) fibrinogen Bβ chain fragment: QGVNDNEEGFFSARGHRPLDKKREEAPSLRPAPPPISGGGYRARPAKAAATQKKVERKAPDAGGCG	–	binding result [4]: no binding; binding result [5]: no binding; binding result [6]: no binding; binding result [7]: no binding; binding result [8]: no binding
TNC III3 (other, human, UniProt P24821 805-894, looked up, domain fragment; also called TNC III3 fused to GST) GST fusion: APSQIEVKDVTDTTALITWFKPLAEIDGIELTYGIKDVPGDRTTIDLTEDENQYSIGNLKPDTEYEVSLISRRGDMSSNPAKETFTTGLD	–	binding result [2]: no binding (tested: 2 nM PDGF-BB)
